The target in the assay is E. coli ribosomal protein L16 (endogenous) (E. coli, UniProt A7ZSK2 1-136). The assay is described as follows: co-immunoprecipitation with anti-GFP (GFP-nanotrap), SDS-PAGE, identification by LC-MS/MS.

B1: GFP-YcfD (N-terminally GFP-tagged YcfD) (other)
chain: MEYQLTLNWPDFLERHWQKRPVVLKRGFNNFIDPISPDELAGLAMESEVDSRLVSHQDGKWQVSHGPFESYDHLGETNWSLLVQAVNHWHEPTAALMRPFRELPDWRIDDLMISFSVPGGGVGPHLDQYDVFIIQGTGRRRWRVGEKLQMKQHCPHPDLLQVDPFEAIIDEELEPGDILYIPPGFPHEGYALENAMNYSVGFRAPNTRELISGFADYVLQRELGGNYYSDPDVPPRAHPADVLPQEMDKLREMMLELINQPEHFKQWFGEFISQSRHELDIAPPEPPYQPDEIYDALKQGEVLVRLGGLRVLRIGDDVYANGEKIDSPHRPALDALASNIALTAENFGDALEDPSFLAMLAALVNSGYWFFEG
notes: also called green fluorescent protein (GFP)-tagged YcfD
B1: the binding result was “binds”.

For the origin of these results see patent US20140045930A1 (published 2014).
